According to US6746859:

Tests used:
[1] = biological target: T1, E. coli thioredoxin/human IL-11 fusion protein with enterokinase cleavage spacer (UniProt P20809)
T1 sequence: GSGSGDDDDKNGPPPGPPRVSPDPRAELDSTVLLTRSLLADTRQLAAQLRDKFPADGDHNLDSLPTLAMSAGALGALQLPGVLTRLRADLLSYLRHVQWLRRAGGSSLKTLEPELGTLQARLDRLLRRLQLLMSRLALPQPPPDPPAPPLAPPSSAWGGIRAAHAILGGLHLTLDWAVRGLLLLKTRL

[2] = system: T2, Gly-(Asp4)-Lys-βNA fluorogenic enterokinase substrate
T2 sequence: GDDDDK

**Q.** Which results are given for “bovine-derived enterokinase holoenzyme (heavy and light chains)”?
**A.** EFFICIENCY OF CLEAVAGE (relative molar activities) (relative molar activity) [1]: 1; EFFICIENCY OF CLEAVAGE (relative molar activities) (relative molar activity) (Trypsinogen): 100; EFFICIENCY OF CLEAVAGE (relative molar activities) (relative molar activity) [2]: 1
